Data on two molecules can be found in PMC3776556, “Crystal structures of the CPAP/STIL complex reveal its role in centriole assembly and human microcephaly” (eLife, 2013).

Assay [1] relates to SAS-5 N-terminal domain (aa 1–202). The experiment in a line: Ni-NTA pull-down of 35S-labelled SAS-4 fragments by SAS-5. Type of assay: binding, C. elegans. Conditions: 25 mM HEPES, 100 mM NaCl, pH 7.4, 4°C, 30 min; SAS-5-6xHis bait on Ni-NTA. As to the method:
SAS-4 constructs were cloned into a pET21a vector for in vitro transcription/translation. Proteins were expressed using the T7 TNT Quick Coupled Transcription/Translation System (Promega, Fitchburg, WI) with ^35S-Met labelling.
SAS-5 fragments were cloned into a pRSET-A vector with a C-terminal 6xHis tag. Proteins were expressed in E. coli Rosetta2(DE3) cells and purified on Ni-NTA agarose (Qiagen) using standard protocols. For pull-down experiments, proteins were dialysed into 25 mM HEPES, 100 mM NaCl, 20 mM imidazole, 1 mM DTT, 10% sucrose, 0.02% Tween-20, pH 7.4.
SAS-5 fragments were pre-incubated with 20 μl Ni-NTA beads for 45 min at 4°C. 10 μl of the SAS-4 IVTT product was added to the beads with 190 μl buffer and incubated at 4°C for 30 min. The beads were washed with 3 × 200 μl buffer and resuspended in 100 μl SDS-PAGE sample buffer. Samples were run on 10% SDS-PAGE gels and either stained with Coomassie or dried and exposed to a phosphor screen overnight. Phosphor screens were analysed on a Personal Molecular Imager System (Bio-Rad, Hercules, CA).

Assay [2] relates to human STIL. The note with it: ref Tang et al., 2011; cited from earlier work. From the text:
Of particular interest in this regard is the putative centriolar CPAP–STIL complex, as mutations in both components result in MCPH ([Leal et al., 2003]; [Bond et al., 2005]; [Gul et al., 2006]; [Darvish et al., 2010]). CPAP and STIL are strictly required for centriole assembly: STIL at a very early stage ([Stevens et al., 2010b]; [Tang et al., 2011]; [Kitagawa et al., 2011a]; [Arquint et al., 2012]; [Vulprecht et al., 2012]) and CPAP slightly later ([Kirkham et al., 2003]; [Leidel and Gonczy, 2003]; [Basto et al., 2006]; [Kleylein-Sohn et al., 2007]; [Dobbelaere et al., 2008]; [Vulprecht et al ...

The subject of assay [3] is centrioles in human cells. Conditions: ref Kitagawa et al., 2011a; cited from earlier work. The text has this:
The structures we report here rev ...

B1: full-length SAS-4: in vitro translated full-length C. elegans SAS-4, 35S-labelled (protein)
chain: MASDENIGADGEQKPSRPFLRKGQGTARFRMPRNNKTSAGAPPTSELSSASSPSINVPRFSLSNALPNSARTVDSGISNEDETRPPTTASLPMDQPSLSSSPENRLNPAPSVAEEHGHSGQHAEEEEDNDTDEVSAMPSFVPDEPSTLVNSDHELSDDALKYKNAAAEFKAFERRMDSMRSASTITTSLATPSSCAPSNSSEPPTRSTPIMNDLGVGPNNHNWPSSMQELSGISLETPQARPLGSNRINQLVRSEAQTGISLLQHHERPTVTAPLRRNDMMNSSRQNPQNGNVQDENRPEHVYDQPIHVPGSSLDRQKLEIEIRRHRNLNIQLRDTIAHLDYAEESVHTTKRQLEEKISEVNNFKKELIEEFKKCKKGVEEEFEKKFEKIKEDYDELYEKLKRDQRDLERDQKILKKGTGERNKEFTETIATLRDKLRASETKNAQYRQDIRVRDEKLKKKDEEIEKLQKDGNRLKSTLQTLEKRVKQLRTEKERDDKEKEMFAKVAMNRKTSNPVPPVLNQSVPISITSNGPSRHPSSSSLTTFRKPSTSNRERGVSWADEPNEQSLEAVPQEFLMMPVKEMPGKFGKCTIYRDSLGETSKVTDTIANGLLFEYSNGDLRWVNRQNAVNIYISAVDKTVRIDLPTYNISIIHTFQRQVEVLRPGNNITLISIKRREVRTDLIYQNGMYKTEIFNRDGRYVTKDFSNQEVSRKYNPGTHTYRDNQCRYVLVTDYNDFELVEPEFRLRWYQGDPTGLNNQYILKIIGRPECSEKTLRLEVNLSTCEGTLETAEMIGDKRRKTTLFQWKK
modifications: ^35S-Met labelling
B1: the “interaction with SAS-5 in pull-down” value in assay [1] is recorded as “interacted specifically with the N-terminal domain (aa 1–202) of SAS-5”.

B2: E1235V: human CPAP with MCPH mutation E1235V (cited studies) (protein, UniProt Q9HC77 1-1338, looked up, variant E1235V)
Centrosomal P4.1-associated …: MFLMPTSSELNSGQNFLTQWMTNPSRAGVILNRGFPILEADKEKRAAVDISTSFPIKGTHFSDSFSFINEEDSLLEEQKLESNNPYKPQSDKSETHTAFPCIKKGPQVAACHSAPGHQEENKNDFIPDLASEFKEGAYKDPLFKKLEQLKEVQQKKQEQLKRQQLEQLQRLMEEQEKLLTMVSGQCTLPGLSLLPDDQSQKHRSPGNTTTGERATCCFPSYVYPDPTQEETYPSNILSHEQSNFCRTAHGDFVLTSKRASPNLFSEAQYQEAPVEKNNLKEENRNHPTGESILCWEKVTEQIQEANDKNLQKHDDSSEVANIEERPIKAAIGERKQTFEDYLEEQIQLEEQELKQKQLKEAEGPLPIKAKPKQPFLKRGEGLARFTNAKSKFQKGKESKLVTNQSTSEDQPLFKMDRQQLQRKTALKNKELCADNPILKKDSKARTKSGSVTLSQKPKMLKCSNRKSLSPSGLKIQTGKKCDGQFRDQIKFENKVTSNNKENVTECPKPCDTGCTGWNKTQGKDRLPLSTGPASRLAAKSPIRETMKESESSLDVSLQKKLETWEREKEKENLELDEFLFLEQAADEISFSSNSSFVLKILERDQQICKGHRMSSTPVKAVPQKTNPADPISHCNRSEDLDHTAREKESECEVAPKQLHSLSSADELREQPCKIRKAVQKSTSENQTEWNARDDEGVPNSDSSTDSEEQLDVTIKPSTEDRERGISSREDSPQVCDDKGPFKDTRTQEDKRRDVDLDLSDKDYSSDESIMESIKHKVSEPSRSSSLSLSKMDFDDERTWTDLEENLCNHDVVLGNESTYGTPQTCYPNNEIGILDKTIKRKIAPVKRGEDLSKSRRSRSPPTSELMMKFFPSLKPKPKSDSHLGNELKLNISQDQPPGDNARSQVLREKIIELETEIEKFKAENASLAKLRIERESALEKLRKEIADFEQQKAKELARIEEFKKEEMRKLQKERKVFEKYTTAARTFPDKKEREEIQTLKQQIADLREDLKRKETKWSSTHSRLRSQIQMLVRENTDLREEIKVMERFRLDAWKRAEAIESSLEVEKKDKLANTSVRFQNSQISSGTQVEKYKKNYLPMQGNPPRRSKSAPPRDLGNLDKGQAASPREPLEPLNFPDPEYKEEEEDQDIQGEISHPDGKVEKVYKNGCRVILFPNGTRKEVSADGKTITVTFFNGDVKQVMPDQRVIYYYAAAQTTHTTYPEGLEVLHFSSGQIVKHYPDGRKEITFPDQTVKNLFPDGQEESIFPDGTIVRVQRDGNKLIEFNNGQRELHTAQFKRREYPDGTVKTVYANGHQETKYRSGRIRVKDKEGNVLMDTEL
In the case of B2, in assay [2], the “yeast-two-hybrid interaction with STIL” value is “appeared to weaken this yeast-two-hybrid interaction”. Further, in assay [3], the centriole duplication entry was “centriole duplication was compromised by both mutations”, the “centriole overgrowth on overexpression” value is “able to promote centriole overgrowth to a greater extent than the WT protein” and the “localisation of CPAP to the centriole” value was “did not effect the localisation of CPAP to the centriole”.
